Experiment [1] addresses T1, anti-IGF-1R antibody (IgG1 subclass with mutations I253A/H310A/H435A).
T1 construct: Positions are EU numbers; also called sample 3; antibody 3
As to the kind of experiment: ELISA assay B, tracer M1.7.10-Dig, target 50 ng/mL. How it is done: (§1) Biotinylated anti-PG Fc-region antibody or biotinylated anti-AAA Fc-region antibody, respectively, was bound to the wells of a streptavidin-coated multi-well plate (SA-MTP) to produce a capture plate. Excess of unbound antibody was removed by washing. Sample/standard antibodies spiked in human and cynomolgus monkey serum (10% final concentration) was added to wells of the SA-MTP multi-well plate coated with the capture plate and incubated for 1 hour at room temperature. After washing, the wells were incubated with digoxygenylated anti-human kappa antibody M1.7.10 (see e.g. WO 2011/048043, incorporated herein by reference). After washing the bound digoxygenylated anti-human kappa antibody complex was incubated with a horseradish peroxidase (HRP) labelled anti-digoxygenin antibody. After another washing step, an ABTS solution was added to the wells and incubated. The product of the color reaction was measured by Elisa reader at 405 nm wavelength (reference wavelength: 490 nm). Absorbance values of each sample or standard were determined in triplicates.

Experiment [2] addresses T2, anti-VEGF/ANG2 antibody (IgG1 subclass with mutations P329G/L234A/L235A).
T2 construct: Positions are EU numbers; also called sample 2; antibody 2
As to the kind of experiment: ELISA assay B, tracer M1.7.10-Dig, target 50 ng/mL. The protocol: as §1
(An ELISA detects its analyte on a solid surface through an enzyme-linked reagent.)

Experiment [3] has as its target T3, anti-VEGF/ANG2 antibody (wild-type IgG1 subclass) (UniProt P01857-1 1-330 = IgG part).
T3 construct: also called sample 5; antibody 5
As to the kind of experiment: ELISA assay B, tracer M1.7.10-Dig, target 50 ng/mL. The protocol:
as §1

Experiment [4] addresses T4, anti-VEGF/ANG2 antibody (IgG1 subclass with mutations P329G/L234A/L235A/I253A/H310A/H435A).
T4 construct: Format of the bispecific antibody not described; Positions are EU numbers, not positions on the UniProt entry; also called sample 1; antibody 1
As to the kind of experiment: ELISA assay B, tracer M1.7.10-Dig, target 50 ng/mL. How it is done:
as §1

Experiment [5] addresses T5, anti-P-Selectin antibody (IgG4 subclass with mutations S228P/L235E).
T5 construct: Positions are EU numbers; also called sample 4; antibody 4
As to the kind of experiment: ELISA assay B, tracer M1.7.10-Dig, target 50 ng/mL. The protocol: as §1

Experiment [6] has as its target T1, anti-IGF-1R antibody (IgG1 subclass …). As to the kind of experiment: ELISA assay B, tracer M1.7.10-Dig, target 25 ng/mL. How it is done:
as §1

Experiment [7] concerns the target T2, anti-VEGF/ANG2 antibody (IgG1 subclass …). As to the kind of experiment: ELISA assay B, tracer M1.7.10-Dig, target 25 ng/mL. How it is done:
as §1

Experiment [8] concerns the target T3, anti-VEGF/ANG2 antibody (wild-type IgG1 …). As to the kind of experiment: ELISA assay B, tracer M1.7.10-Dig, target 25 ng/mL. How it is done: as §1
Experiment [9] addresses T4, anti-VEGF/ANG2 antibody (IgG1 subclass …). As to the kind of experiment: ELISA assay B, tracer M1.7.10-Dig, target 25 ng/mL. How it is done: as §1
Experiment [10] addresses T1, anti-IGF-1R antibody (IgG1 subclass …). As to the kind of experiment: ELISA assay C, tracer FcγRI-Dig, target 6 ng/mL.
For experiment [11], the target named is T2, anti-VEGF/ANG2 antibody (IgG1 subclass …). As to the kind of experiment: ELISA assay C, tracer FcγRI-Dig, target 6 ng/mL.
In experiment [12] the target is T3, anti-VEGF/ANG2 antibody (wild-type IgG1 …). As to the kind of experiment: ELISA assay C, tracer FcγRI-Dig, target 6 ng/mL.
For experiment [13], the target named is T4, anti-VEGF/ANG2 antibody (IgG1 subclass …). As to the kind of experiment: ELISA assay C, tracer FcγRI-Dig, target 6 ng/mL.
The target in experiment [14] is T1, anti-IGF-1R antibody (IgG1 subclass …). As to the kind of experiment: ELISA assay B, tracer M1.7.10-Dig, target 0 ng/mL (blank). The protocol:
as §1

Experiment [15] has as its target T2, anti-VEGF/ANG2 antibody (IgG1 subclass …). The description is as above. How it is done: as §1
Experiment [16] deals with T3, anti-VEGF/ANG2 antibody (wild-type IgG1 …). Described as above. How it is done: as §1
Experiment [17] concerns the target T4, anti-VEGF/ANG2 antibody (IgG1 subclass …). The description is as above. How it is done:
as §1

In experiment [18] the target is T5, anti-P-Selectin antibody (IgG4 subclass …). The description is as above. The protocol:
as §1

Experiment [19] has as its target T1, anti-IGF-1R antibody (IgG1 subclass …). As to the kind of experiment: ELISA assay C, tracer FcγRI-Dig, target 50 ng/mL.
Experiment [20] deals with T2, anti-VEGF/ANG2 antibody (IgG1 subclass …). As to the kind of experiment: ELISA assay C, tracer FcγRI-Dig, target 50 ng/mL.
Experiment [21] addresses T3, anti-VEGF/ANG2 antibody (wild-type IgG1 …). As to the kind of experiment: ELISA assay C, tracer FcγRI-Dig, target 50 ng/mL.
For experiment [22], the target named is T4, anti-VEGF/ANG2 antibody (IgG1 subclass …). As to the kind of experiment: ELISA assay C, tracer FcγRI-Dig, target 50 ng/mL.
For experiment [23], the target named is T5, anti-P-Selectin antibody (IgG4 subclass …). As to the kind of experiment: ELISA assay C, tracer FcγRI-Dig, target 50 ng/mL.

These results are taken from patent publication US20240410900A1 (Hoffmann-La Roche, published 2024).

B1: anti-PG variant Fc-region antibody M1.3.17 (antibody, V domains shown)
VH: EVKLLESGGGLVQPGGSLKLSCAASGIDFRRYWMNWVRQAPGKGLEWIGEIDPDSSTINYTPSLKDKFIISRDNAKNTMYLQMRKVRSEDTALYYCARPYDYGAWFAYWGQGTLVTVSA
VL: QAVVTQESALTTSPGETVTLTCRSTTGAVTTSNYANWVQEKPDHLFTGLIGGTNKRAPGVPARFSGSLIGDKAALTITGAQTEDEAIYFCALWYSDHWVFGGGTKLTVL
notes: Monomeric, bivalent full-length antibody with murine variable domains; Biotinylated when used as capture antibody; also called anti-PG antibody clone 1.3.17; M1.3.17-Bi
For the molecule B1, the “signal [OD405 nm]” value in experiment [1] stood at 0.048 OD405 nm; in experiment [2], 0.215 OD405 nm; in experiment [3], 0.042 OD405 nm; in [4] it was 0.035 OD405 nm; in experiment [5] it was 0.049 OD405 nm; in experiment [6] it was 0.046 OD405 nm. For the same molecule, the “signal [OD405 nm]” value in experiment [7] was 0.213 OD405 nm; in experiment [8], 0.043 OD405 nm; in experiment [9], 0.035 OD405 nm; in experiment [10], 1.21 OD405 nm; in experiment [11] it was 1.22 OD405 nm; in [12], 1.17 OD405 nm. In addition, the “signal [OD405 nm]” value was found to be 1.17 OD405 nm in [13]; 0.045 OD405 nm in experiment [14]; 0.038 OD405 nm in experiment [15]; 0.043 OD405 nm in experiment [16]; 0.035 OD405 nm in experiment [17]; 0.049 OD405 nm in experiment [18]. Besides, the “signal [OD405 nm]” value in experiment [19] came to 1.21 OD405 nm; in experiment [20], 1.21 OD405 nm; in experiment [21], 1.16 OD405 nm; in experiment [22], 1.17 OD405 nm; in experiment [23], 1.15 OD405 nm.

B2: anti-PG variant Fc-region antibody M1.7.24 (monomeric, bivalent) (antibody, V domains shown)
VH: EVKLLESGGGLVQPGGSLKLSCAASGFDFSRYWMNWVRQAPGKGLEWIGEITPDSSTINYTPSLKDKFIISRDNAKNTLYLQMIKVRSEDTALYYCVRPYDYGAWFASWGQGTLVTVSA
VL: QAVVTQESALTTSPGETVTLTCRSSTGAVTTSNYANWVQEKPDHLFTGLIGGTNKRAPGVPARFSGSLIGDKAALTITGAQTEDEAIYFCALWYSNHWVFGGGTKLTVL
notes: Full-length Y-shaped antibody with murine variable domains; Biotinylated when used as capture antibody; also called anti-PG antibody clone 1.7.24; M1.7.24-Bi
As to B2, the “signal [OD405 nm]” value in experiment [1] stood at 0.064 OD405 nm; in experiment [2], 3.17 OD405 nm; in [3] it was 0.04 OD405 nm; in experiment [4], 0.06 OD405 nm; in experiment [5], 0.043 OD405 nm; in experiment [6], 0.048 OD405 nm. The “signal [OD405 nm]” value in experiment [7] was 3.16 OD405 nm; in experiment [8], 0.041 OD405 nm; in [9], 0.047 OD405 nm; in experiment [10] it was 0.069 OD405 nm; in [11], 0.06 OD405 nm; in experiment [12], 0.057 OD405 nm. The “signal [OD405 nm]” value in experiment [13] is 0.079 OD405 nm; in experiment [14] it was 0.04 OD405 nm; in experiment [15] it was 0.046 OD405 nm; in [16], 0.039 OD405 nm; in [17], 0.049 OD405 nm; in experiment [18] it was 0.035 OD405 nm. The “signal [OD405 nm]” value was 0.095 OD405 nm in experiment [19]; 0.094 OD405 nm in experiment [20]; 0.066 OD405 nm in [21]; 0.084 OD405 nm in [22]; 0.066 OD405 nm in [23].

B3: anti-AAA variant Fc-region antibody M1.6.22 (antibody, V domains shown)
VH: EVQLVESGGDLVKPGGSLKLSCAASGFTFSSYGMSWVRQTPDKRLEWVATISSGGSYIYYPDSVKGRFTISRDNAKNTLYLQMSSLKSEDTAMYYCARLGMITTGYAMDYWGQGTSVTVSS
VL: DVLMTQTPLSLPVSLGDQASISCRSSQTIVHSTGHTYLEWFLQKPGQSPKLLIYKVSNRFSGVPDRFSGSGSGTDFTLKISRVEAEDLGVYYCFQGSHVPYTFGGGTKLEIK
notes: Murine variable domains; also called M1.6.22-Bi
B3: the “signal [OD405 nm]” value in experiment [1] came to 2.9 OD405 nm; in [2] it was 0.127 OD405 nm; in experiment [3] it was 0.049 OD405 nm; in experiment [4], 0.05 OD405 nm; in [5], 0.047 OD405 nm; in experiment [6], 2.89 OD405 nm. Further, the “signal [OD405 nm]” value in [7] was 0.092 OD405 nm; in experiment [8], 0.047 OD405 nm; in experiment [9], 0.044 OD405 nm; in [10] it was 0.104 OD405 nm; in experiment [11], 0.06 OD405 nm; in experiment [12], 0.064 OD405 nm. Besides, the “signal [OD405 nm]” value turned out to be 0.06 OD405 nm in experiment [13]; 0.037 OD405 nm in [14]; 0.038 OD405 nm in experiment [15]; 0.037 OD405 nm in experiment [16]; 0.047 OD405 nm in [17]; 0.038 OD405 nm in [18]. The “signal [OD405 nm]” value in experiment [19] came out at 1.06 OD405 nm; in experiment [20], 0.057 OD405 nm; in experiment [21], 0.067 OD405 nm; in experiment [22], 0.077 OD405 nm; in [23], 0.054 OD405 nm.
